# Reference: the supplement of paper PMC6755084
# B1: F1*; the commonest letter at each place (parent)
# chain: GAGACCGCAACTGAAAAGTTGTTATCACTTGTCGTAAGACACTTTGGATGGGTTGAAGTTCTGCACGTAGAAGCAAAAGGC
# Variants of: B1
# Test: fraction ligated after 30 min (ligated reads / total reads); higher = more ligase activity
# Conditions: with F1*sub RNA substrate (template-directed ligation), 42 °C
# How it was run: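 The ligase ribozyme variants were produced by PCR amplification of oligo-pool templates, T7 transcription and purification on gel. Their ligated and unligated forms were gel-separated, then reverse transcribed with barcoded primers before MiSeq sequencing. Core bases were filtered at a quality of ≥20, and fraction ligated per variant was ligated reads over total reads.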
row,Variant,fraction ligated
1,GAGACCGCAACTGAAAAGTTGTTATCACTTGTCGTACTACACTTTGGATGGGTTGAAGTTCTGCACGTAGAAGCAAAAGGC [A37C G38T],0.844
2,GAGACCGCAACTGAAAAGTTGTTATCACTTGTCGTACAACACTTTGGATGGGTTGAAGTTCTGCACGTAGAAGCAAAAGGC [A37C G38A],0.836
3,GAGACCGCAACTGAAAAGTTGTTATCACTTGTCGTAGGACACTTTGGATGGGTTGAAGTTCTGCACGTAGAAGCAAAAGGC [A37G],0.857
4,GAGACCGCAACTGAAAAGTTGTTATCACTTGTCGTACGACACTTTGGATGGGTTGAAGTTCTGCACGTAGAAGCAAAAGGC [A37C],0.849
5,GAGACCGCAACTGAAAAGTTGTTATCACTTGTCGTAGGACACTTTGGATGGGTTGTAGTTCTGCACGTAGAAGCAAAAGGC [A37G A56T],0.819
6,GAGACCGCAACTGAAAAGTTGTTATCACTTGTCGTAGGACACTTTGGATGGGTTGCAGTTCTGCACGTAGAAGCAAAAGGC [A37G A56C],0.802
7,GAGACCGCAACTGAAAAGTTGTTATCACTTGTCGTAGGACACTTTGGATGGGTTGGAGTTCTGCACGTAGAAGCAAAAGGC [A37G A56G],0.818
8,GAGACCGCAACTGAAAAGTTGTTATCACTTGTCGTAGGACACTTTGGCTGGGTTGAAGTTCTGCACGTAGAAGCAAAAGGC [A37G A48C],0.763
9,GAGACCGCAACTGAAAAGTTGTTATCACTTGTCGTAGGACACTTTGGGTGGGTTGAAGTTCTGCACGTAGAAGCAAAAGGC [A37G A48G],0.795
10,GAGACCGCAACTGAAAAGTTGTTATCACTTGTCGTAGGACACTTTGGTTGGGTTGAAGTTCTGCACGTAGAAGCAAAAGGC [A37G A48T],0.799
11,GAGACCGCAACTGAAAAGTTGTTATCACTTGTCGTACGACACTTTGGATCGGTTGAAGTTCTGCACGTAGAAGCAAAAGGC [A37C G50C],0.439
12,GAGACCGCAACTGAAAAGTTGTTATCACTTGTCGTACGACACTTTGGATAGGTTGAAGTTCTGCACGTAGAAGCAAAAGGC [A37C G50A],0.616
13,GAGACCGCAACTGAAAAGTTGTTATCACTTGTCGTACGACACTTTGGATTGGTTGAAGTTCTGCACGTAGAAGCAAAAGGC [A37C G50T],0.787
14,GAGACCGCAACTGAAAAGTTGTTATCACTTGTCGTACGACACTTTTGATGGGTTGAAGTTCTGCACGTAGAAGCAAAAGGC [A37C G46T],0.785
15,GAGACCGCAACTGAAAAGTTGTTATCACTTGTCGTACGACACTTTAGATGGGTTGAAGTTCTGCACGTAGAAGCAAAAGGC [A37C G46A],0.78
16,GAGACCGCAACTGAAAAGTTGTTATCACTTGTCGTACGACACTTTCGATGGGTTGAAGTTCTGCACGTAGAAGCAAAAGGC [A37C G46C],0.795
17,GAGACCGCAACTGAAAAGTTGTTATCACTTGTCGTACGACACGTTGGATGGGTTGAAGTTCTGCACGTAGAAGCAAAAGGC [A37C T43G],0.806

row,Variant,fraction ligated
1,GAGACCGCAACTGAAAAGTTGTTATCACTTGTCGTACGACACATTGGATGGGTTGAAGTTCTGCACGTAGAAGCAAAAGGC [A37C T43A],0.832
2,GAGACCGCAACTGAAAAGTTGTTATCACTTGTCGTACGACACCTTGGATGGGTTGAAGTTCTGCACGTAGAAGCAAAAGGC [A37C T43C],0.817
3,GAGACCGCAACTGAAAAGTTGTTATCACTTGTCGTACGACACTTTGGATGGGTTCAAGTTCTGCACGTAGAAGCAAAAGGC [A37C G55C],0.826
4,GAGACCGCAACTGAAAAGTTGTTATCACTTGTCGTACGACACTTTGGATGGGTTTAAGTTCTGCACGTAGAAGCAAAAGGC [A37C G55T],0.845
5,GAGACCGCAACTGAAAAGTTGTTATCACTTGTCGTACGACACTTTGGATGGGTTAAAGTTCTGCACGTAGAAGCAAAAGGC [A37C G55A],0.837
6,GAGACCGCAACTGAAAAGTTGTTATCACTTGTCGTACGACACTTTGGATGGGTTGAGGTTCTGCACGTAGAAGCAAAAGGC [A37C A57G],0.838
7,GAGACCGCAACTGAAAAGTTGTTATCACTTGTCGTACGACACTTTGGATGGGTTGATGTTCTGCACGTAGAAGCAAAAGGC [A37C A57T],0.831
8,GAGACCGCAACTGAAAAGTTGTTATCACTTGTCGTACGACACTTTGGATGGGTTGACGTTCTGCACGTAGAAGCAAAAGGC [A37C A57C],0.819
9,GAGACCGCAACTGAAAAGTTGTTATCACTTGTCGTAGGACGCTTTGGATGGGTTGAAGTTCTGCACGTAGAAGCAAAAGGC [A37G A41G],0.822
10,GAGACCGCAACTGAAAAGTTGTTATCACTTGTCGTAGGACCCTTTGGATGGGTTGAAGTTCTGCACGTAGAAGCAAAAGGC [A37G A41C],0.787
11,GAGACCGCAACTGAAAAGTTGTTATCACTTGTCGTAGGACTCTTTGGATGGGTTGAAGTTCTGCACGTAGAAGCAAAAGGC [A37G A41T],0.859
12,GAGACCGCAACTGAAAAGTTGTTATCACTTGTCGTACGACACTTTGGCTGGGTTGAAGTTCTGCACGTAGAAGCAAAAGGC [A37C A48C],0.792
13,GAGACCGCAACTGAAAAGTTGTTATCACTTGTCGTACGACACTTTGGGTGGGTTGAAGTTCTGCACGTAGAAGCAAAAGGC [A37C A48G],0.795
14,GAGACCGCAACTGAAAAGTTGTTATCACTTGTCGTACGACACTTTGGTTGGGTTGAAGTTCTGCACGTAGAAGCAAAAGGC [A37C A48T],0.775
15,GAGACCGCAACTGAAAAGTTGTTATCACTTGTCGTACGACACTTTGGAAGGGTTGAAGTTCTGCACGTAGAAGCAAAAGGC [A37C T49A],0.778
16,GAGACCGCAACTGAAAAGTTGTTATCACTTGTCGTACGACACTTTGGAGGGGTTGAAGTTCTGCACGTAGAAGCAAAAGGC [A37C T49G],0.797
17,GAGACCGCAACTGAAAAGTTGTTATCACTTGTCGTACGACACTTTGGACGGGTTGAAGTTCTGCACGTAGAAGCAAAAGGC [A37C T49C],0.737
